Assay [1] concerns the target T1, human Fcγ receptor IIB/C (human, UniProt P31994 46-217).
T1 sequence (looked up): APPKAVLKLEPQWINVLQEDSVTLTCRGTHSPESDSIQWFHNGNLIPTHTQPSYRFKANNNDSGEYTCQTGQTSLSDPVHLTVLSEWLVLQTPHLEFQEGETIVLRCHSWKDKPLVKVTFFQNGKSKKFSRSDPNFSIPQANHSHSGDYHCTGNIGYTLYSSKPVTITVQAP
The assay can be described thus: SPR (Biacore T200), construct amine-coupled, Fcγ receptor titrated 375-6000 nM, 1:1 fit. As for the experimental part: (§1) The Fc region incorporated into anti-PSMA bispecific constructs contained mutations intended to reduce or abolish binding to common human and cynomolgus Fc gamma receptors. SPR experiments were conducted at 25° C. in HBS-EP+ with 0.2% BSA buffer on a Biacore T200 system to evaluate the impact of these mutations on binding. For these experiments, three flow cells of a CM5 sensor chip were immobilized with anti-PSMA bispecifics by standard amine coupling to a response level of ˜2000 RU. A blank immobilization was performed on flow cell #1 for purposes of background signal subtraction. Both human and cynomolgus monkey Fcγ receptors (purchased from R&D Systems) were diluted in HBS-EP+ with 0.2% BSA to 4-6 μM and then flowed as analytes at 30 μL/min for 120 seconds followed by a 240 second dissociation step. No regeneration step was required. Blank-subtracted sensorgrams were visually inspected for binding to each of the Fcγ receptor proteins. […] Attenuated binding to Fcγ receptors IIA (both polymorphic variants) and IIB/C was observed. PSMA01107 and PSMA01108 share the same Fc amino acid sequence and therefore equivalent Fcγ receptor binding behavior was expected.
TSC266 (PSMA×CD3 bispecific antibody) and another protein containing a wild-type IgG1 Fc sequence were also analyzed for comparison. Sensorgrams obtained from kinetic SPR measurements were analyzed by the double subtraction method in the Biacore T200 evaluation software. Kinetic parameters were derived from a one-to-one binding fit model and reported below in Table 8. Both TSC266 and PSMA01107 show reduced binding compared to a wild type IgG1 Fc.

Assay [2] deals with T2, Human PSMA ECD-AFH (TSC033), recombinant dimeric PSMA ECD (human, UniProt Q04609 44-750).
T2 construct: SEC-purified dimer; also called HuPSMA-AFH; Avi-His-Human PSMA ECD
T2 sequence (Q04609 other isoform, or with tags, fused parts or gaps): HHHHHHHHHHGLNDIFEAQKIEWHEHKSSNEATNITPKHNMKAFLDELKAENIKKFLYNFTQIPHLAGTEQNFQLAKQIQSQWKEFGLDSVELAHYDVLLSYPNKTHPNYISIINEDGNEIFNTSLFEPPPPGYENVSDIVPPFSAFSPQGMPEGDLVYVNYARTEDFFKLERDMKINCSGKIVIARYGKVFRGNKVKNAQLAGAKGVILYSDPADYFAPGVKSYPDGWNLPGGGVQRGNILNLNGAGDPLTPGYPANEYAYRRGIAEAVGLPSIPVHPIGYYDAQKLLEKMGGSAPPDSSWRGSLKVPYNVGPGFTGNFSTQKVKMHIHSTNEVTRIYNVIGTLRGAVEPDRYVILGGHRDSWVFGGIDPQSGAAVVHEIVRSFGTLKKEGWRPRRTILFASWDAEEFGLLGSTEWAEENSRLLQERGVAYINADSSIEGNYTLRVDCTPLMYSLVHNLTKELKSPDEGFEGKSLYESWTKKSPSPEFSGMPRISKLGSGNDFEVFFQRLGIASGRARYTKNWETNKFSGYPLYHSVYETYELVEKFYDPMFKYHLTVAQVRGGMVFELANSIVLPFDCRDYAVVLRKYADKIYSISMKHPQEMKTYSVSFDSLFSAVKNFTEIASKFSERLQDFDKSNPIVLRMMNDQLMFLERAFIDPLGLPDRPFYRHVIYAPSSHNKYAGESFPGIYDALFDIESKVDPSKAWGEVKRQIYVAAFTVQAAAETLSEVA
The assay can be described thus: SPR (Biacore T200), human PSMA dimer ECD 10X His (TSC033), 1:1 fit. (In general: In SPR one partner is held on a chip, and binding of the other changes the refractive index at the surface.)

The target of the next assay is T3, mIgG Fc-human PSMA ECD (human).
T3 construct: Called PSMA dimer in the SPR method; also called mFc-Hu PSMA ECD; murine Fc-tagged human PSMA ECD
The assay can be described thus: SPR (Biacore T200), bispecific amine-coupled, mFc-PSMA dimer 1-81 nM as analyte, 1:1 fit. As for the experimental part:
SPR studies were performed on a subset of bispecific constructs binding to Human and cynomolgus primate PSMA ectodomain (ECD) fused to the c-terminus of a murine IgG1 Fc region. These experiments were conducted at 25° C. in dPBS (Gibco, 14040-133) with 0.2% BSA buffer on a Biacore T200 system. Bispecific constructs were immobilized at a density of ˜2,000-4,000 response units (RU) onto individual flow cells of a CM5 research-grade sensor chip (GE) by standard amine coupling chemistry, leaving one flow cell surface unmodified as the reference. Using a multi-cycle kinetics mode, a buffer blank and […] different concentrations of the PSMA dimer ranging from 1 nM to 81 nM in dPBS with 0.2% BSA were sequentially injected through each flow cell at 30 μL/min for 300 seconds followed by a 600 second dissociation phase. Regeneration was achieved by injection of 10 mM glycine pH 2.0 at a flow rate of 30 μL/min for 40 seconds followed by dPBS with 0.2% BSA buffer stabilization for 1 min.
Sensorgrams obtained from kinetic SPR measurements were analyzed by the double subtraction method. The signal from the reference flow cell was subtracted from the analyte binding response obtained from flow cells with captured ligands. The buffer blank response was then subtracted from analyte binding responses and the final double-referenced data were analyzed with Biacore T200 Evaluation software (2.0, GE), globally fitting data to derive kinetic parameters. All sensorgrams were fitted using a simple one-to-one binding model.

The target of assay [3] is T4, human Fcγ receptor IIA, R167 variant (human, UniProt P12318 36-218).
T4 construct: also called Type IIA R167
T4 sequence (looked up): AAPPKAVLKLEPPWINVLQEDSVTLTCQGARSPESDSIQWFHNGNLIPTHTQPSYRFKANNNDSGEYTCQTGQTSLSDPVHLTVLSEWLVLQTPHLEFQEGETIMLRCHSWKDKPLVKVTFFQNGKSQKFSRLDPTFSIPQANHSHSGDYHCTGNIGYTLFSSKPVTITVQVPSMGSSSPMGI
The assay can be described thus: SPR (Biacore T200), construct amine-coupled, Fcγ receptor at 4-6 µM as analyte. As for the experimental part: as §1

For assay [4], the target named is T5, human Fcγ receptor IIA, H167 variant (human, UniProt P12318 36-218).
T5 sequence (looked up): T4 sequence (looked up) with R132H
Described as above. As for the experimental part: as §1

Assay [5] deals with T1, human Fcγ receptor IIB/C. The assay is described as above. As for the experimental part:
as §1

Residue numbers refer to the chain shown, from its start.

B1: TSC266 Anti PSMA scFv x Anti CD3 scFv ADAPTIR (bispecific antibody)
chain: DIQMTQSPSAMSASVGDRVTITCRASKSISKYLAWFQQKPGKVPKLRIHSGSTLQSGVPSRFSGSGSGTEFTLTISSLQPEDFATYYCQQHIEYPWTFGQGTKVEIKRGGGGSGGGGSGGGGSQVQLVQSGAEVKKPGASVKVSCKASGYTFTDYYMHWVRQAPGQGLEWMGYFNPYNDYTRYAQKFQGRVTMTRDTSISTAYMELSSLRSDDTAVYYCARSDGYYDAMDYWGQGTTVTVSSSEPKSSDKTHTCPPCPAPEAAGAPSVFLFPPKPKDTLMISRTPEVTCVVVDVSHEDPEVKFNWYVDGVEVHNAKTKPREEQYNSTYRVVSVLTVLHQDWLNGKAYACAVSNKALPAPIEKTISKAKGQPREPQVYTLPPSRDELTKNQVSLTCLVKGFYPSDIAVEWESNGQPENNYKTTPPVLDSDGSFFLYSKLTVDKSRWQQGNVFSCSVMHEALHNHYTQKSLSLSPGQRHNNSSLNTGTQMAGHSPNSQVQLVESGGGVVQPGRSLRLSCKASGYTFTRSTMHWVRQAPGQGLEWIGYINPSSAYTNYNQKFKDRFTISADKSKSTAFLQMDSLRPEDTGVYFCARPQVHYDYNGFPYWGQGTPVTVSSGGGGSGGGGSGGGGSAQDIQMTQSPSSLSASVGDRVTMTCSASSSVSYMNWYQQKPGKAPKRWIYDSSKLASGVPARFSGSGSGTDYTLTISSLQPEDFATYYCQQWSRNPPTFGGGTKLQITSSS
notes: The anti-PSMA domain is that of PSMA01012 and the anti-CD3 domain is DRA222; also called unoptimized parent construct; TSC266 control (PSMA × CD3 bispecific protein)
What is called Kd is the free concentration of one partner at which half of the binding sites on the other are occupied at equilibrium, for simple one-to-one binding. B1 came in with a Kd in the assay with human Fcγ receptor IIB/C [1] of 2700 nM.

B2: PSMA01107 Anti-PSMA scFv x Fc x linker x Anti CD3 scFv; Anti PSMA scFv x Fc (bispecific antibody)
chain 1: QVQLVQSGAEVKKPGASVKVSCKASGYTFTDYYMHWVRQAPGQGLEWMGYFNPYNDYTRYAQKFQGRVTMTRDTSTSTVYMELSSLRSEDTAVYYCARSDGYYDAMDYWGQGTTVTVSSGGGGSGGGGSGGGGSGGGGSDIQMTQSPSSLSASVGDRVTITCRASKSISKYLAWYQQKPGKAPKLLIHSGSSLESGVPSRFSGSGSGTEFTLTISSLQPDDFATYYCQQHIEYPWTFGQGTKVEIKEPKSSDKTHTCPPCPAPPAAAPSVFLFPPKPKDTLMISRTPEVTCVVVDVSHEDPEVKFNWYVDGVEVHNAKTKPREEQYNSTYRVVSVLTVLHQDWLNGKEYKCAVSNKALPAPIEKTISKAKGQPREPQVYTLPPSRDELTKNQVSLWCLVKGFYPSDIAVEWESNGQPENNYKTTPPVLDSDGSFFLYSKLTVDKSRWQQGNVFSCSVMHEALHNHYTQKSLSLSPGGGGSPSQVQLVQSGAEVKKPGASVKVSCKASGYTFTRSTMHWVRQAPGQGLEWIGYINPSSAYTNYAQKFQGRVTLTADKSTSTAYMELSSLRSEDTAVYYCASPQVHYDYNGFPYWGQGTLVTVSSGGGGSGGGGSGGGGSGGGGSDIQMTQSPSSLSASVGDRVTITCRASSSVSYMNWYQQKPGKAPKRWIYDSSKLASGVPSRFSGSGSGTDFTLTISSLQPEDFATYYCQQWSRNPPTFGQGTKVEIKRS
chain 2: QVQLVQSGAEVKKPGASVKVSCKASGYTFTDYYMHWVRQAPGQGLEWMGYFNPYNDYTRYAQKFQGRVTMTRDTSTSTVYMELSSLRSEDTAVYYCARSDGYYDAMDYWGQGTTVTVSSGGGGSGGGGSGGGGSGGGGSDIQMTQSPSSLSASVGDRVTITCRASKSISKYLAWYQQKPGKAPKLLIHSGSSLESGVPSRFSGSGSGTEFTLTISSLQPDDFATYYCQQHIEYPWTFGQGTKVEIKEPKSSDKTHTCPPCPAPPAAAPSVFLFPPKPKDTLMISRTPEVTCVVVDVSHEDPEVKFNWYVDGVEVHNAKTKPREEQYNSTYRVVSVLTVLHQDWLNGKEYKCAVSNKALPAPIEKTISKAKGQPREPQVYTLPPSRDELTKNQVSLSCAVKGFYPSDIAVEWESNGQPENNYKTTPPVLDSDGSFFLVSKLTVDKSRWQQGNVFSCSVMHEALHNHYTQKSLSLSPG
notes: Heterodimer, bivalent for PSMA and monovalent for CD3 (VH-VL scFv at the C-terminus); also called PSMA1107
In the case of B2, the Kd in assay [2] is 2.6 nM; with human Fcγ receptor IIB/C [1], 6500 nM; with mIgG Fc-human PSMA ECD it was 3 nM.

B3: PSMA01108 Anti-PSMA scFv x Fc x linker x Anti CD3 scFv; Anti PSMA scFv x Fc (bispecific antibody)
chain 1: QVQLVQSGAEVKKPGASVKVSCKASGYTFTDYYMHWVRQAPGQGLEWMGYFNPYNDYTRYAQKFQGRVTMTRDTSTSTVYMELSSLRSEDTAVYYCARSDGYYDAMDYWGQGTTVTVSSGGGGSGGGGSGGGGSGGGGSDIQMTQSPSSLSASVGDRVTITCRASKSISKYLAWYQQKPGKAPKLLIHSGSSLESGVPSRFSGSGSGTEFTLTISSLQPDDFATYYCQQHIEYPWTFGQGTKVEIKEPKSSDKTHTCPPCPAPPAAAPSVFLFPPKPKDTLMISRTPEVTCVVVDVSHEDPEVKFNWYVDGVEVHNAKTKPREEQYNSTYRVVSVLTVLHQDWLNGKEYKCAVSNKALPAPIEKTISKAKGQPREPQVYTLPPSRDELTKNQVSLWCLVKGFYPSDIAVEWESNGQPENNYKTTPPVLDSDGSFFLYSKLTVDKSRWQQGNVFSCSVMHEALHNHYTQKSLSLSPGGGGSPSDIQMTQSPSSLSASVGDRVTITCRASSSVSYMNWYQQKPGKAPKRWIYDSSKLASGVPSRFSGSGSGTDFTLTISSLQPEDFATYYCQQWSRNPPTFGQGTKVEIKGGGGSGGGGSGGGGSGGGGSQVQLVQSGAEVKKPGASVKVSCKASGYTFTRSTMHWVRQAPGQGLEWIGYINPSSAYTNYAQKFQGRVTLTADKSTSTAYMELSSLRSEDTAVYYCASPQVHYDYNGFPYWGQGTLVTVSS
chain 2: B2 chain 2
notes: also called PSMA1108; PSAM01108
For B3, the binding result (in assay [3]; in assay [4]; in the assay with human Fcγ receptor IIB/C [5]) was “binds” in each case.
